The results in this text go back to patent US20240216432A1 (HEMOGENYX PHARMACEUTICALS, published 2024).

Several values for one entry are separate records, joined by “and”; a condition that tells them apart may be missing. Identical values can stand only once.

Assay [1] addresses T1, FLT3 (Fms Related Receptor Tyrosine Kinase 3) (human, UniProt P36888 27-993).
T1 construct: whole, on cells; The target is endogenous FLT3 on human leukemia cell lines; also called human FLT3; FLK2
Kind of assay: flow cytometry on REH cells, median fluorescence intensity against concentration, four-parameter fit, anti-His FITC detection. The procedure: (§1) REH cells were incubated with varying concentrations (10⁻¹ to 10⁴ ng/mL) of the IgG1 or scFv molecules diluted in FACS buffer (hereinafter referred to simply as “buffer,” phosphate buffered saline (PBS) (Caisson Labs, no. PBL06)+2% BCS (GE Healthcare, no. SH30073.04)+1 mM EDTA (Invitrogen, no. 15575020)) in a final volume of 100 μL, in triplicate, for 30 minutes at 4° C. Cells were washed three times with buffer and incubated with secondary antibodies. IgG1 was detected with 1:200 goat anti-human Fc FITC (Jackson) secondary antibody and scFv was detected with anti-His FITC (1:200) secondary antibody. Secondary antibodies were incubated in 100 μL final volume in triplicate for 30 minutes at 4° C. Cells were washed once with buffer and resuspended in 200 uL buffer+1:100 7-AAD Viability Staining Solution (Biolegend, no. 420404), and analyzed by flow cytometry. Flow cytometry acquisition was performed with a Beckman Coulter CytoFLEX (Beckman Coulter), and analysis was performed with FlowJo (Treestar Inc, Ashland, OR). Plots show median fluorescence intensity of REH cells versus concentration of the primary antibody used. Variable slope (four parameters) curve was fit to the data and EC50 was used to compare binding affinities.

Assay [2] addresses T1, FLT3 (Fms Related Receptor Tyrosine …). Description: flow cytometry on REH cells, median fluorescence intensity against concentration, four-parameter fit, goat anti-human Fc FITC detection. The method, then: as §1
A general note: A flow cytometer gives signals particle by particle.

Assay [3] has the same target. Description: flow cytometry on REH cells, anti-human IgG Fc Alexa Fluor 488 detection, with or without 10 nM FLT3L pre-incubation. The source says:
Cells were then stained with various concentrations of the chimeric monoclonal antibody prepared in flow buffer. Cells were washed five times with flow buffer and stained with anti-human IgG Fc antibody conjugated to Alexa Fluor 488 (Jackson Immunoresearch Laboratories, 109-545-008). Cells were stained with 7-AAD (7-AAD Viability Staining Solution, Biolegend 420404) followed by flow cytometry analysis.

B1: his-tagged scFv, clone hum 1-18BA-v1 (SEQ ID NO: 4 with a His tag on the C terminus) (scFv)
scFv: DIQMTQSPSSLSASVGDRVTITCRASQEISGYLSWLQQKPGKAIKRLIYAASTLQSGVPSRFSGSRSGSDYTLTISSLQPEDFATYYCLQYASYPFTFGQGTKLEIKGGGGSGGGGSGGGSGGGGSQVTLKESGPTLVKPTQTLTLTCTFSGFSLSTSTMGVGWIRQPPGKALEWLAHILWNDSKRYNPSLKSRLTITKDTSKKQVVLTMTNMDPVDTATYYCARIVYYSTYVGYFDVWGQGTTVTVSS
notes: also called humanized anti-FLT3 scFv; scFv molecule; not shown: C-terminal His tag
B1: the EC50 (usually the concentration that produces a half-maximal response) in assay [1] was 0.0854 µg/mL and 3.42 nM.

B2: fully humanized anti-human FLT3 monoclonal IgG1, clone hum 1-18BA-v1 (antibody, V domains shown)
VH: QVTLKESGPTLVKPTQTLTLTCTFSGFSLSTSTMGVGWIRQPPGKALEWLAHILWNDSKRYNPSLKSRLTITKDTSKKQVVLTMTNMDPVDTATYYCARIVYYSTYVGYFDVWGQGTTVTVSS
VL: DIQMTQSPSSLSASVGDRVTITCRASQEISGYLSWLQQKPGKAIKRLIYAASTLQSGVPSRFSGSRSGSDYTLTISSLQPEDFATYYCLQYASYPFTFGQGTKLEIK
notes: also called humanized anti-FLT3 IgG; IgG1 molecule
For B2, in assay [2], the EC50 was 0.0621 µg/mL and 0.41 nM.

B3: chimeric antibody 1-18BA (mouse VL and mouse VH, human IgG) (antibody, V domains shown)
VH: QVTLKESGPGILQPSQTLSLTCSFSGFSLSTSTMGVGWIRQPSGKGLEWLLHILWNDSKYYNPALKSRLTISKDTYNKQVFLKIANVDTADTATYYCARIVYYSTYVGYFDVWGAGTTVTVSS
VL: DIQMTQSPSSLSASLGERVSLTCRASQEISGYLSWLQQKPDGTIKRLIYAASTLHSGVPKRFSGSRSGSDYSLTISRLESEDVADYYCLQYASYPFTFGSGTKLEIK
notes: these appear to be the numbers of US 20190389955; also called chimeric anti-FLT3 antibody; cAb1977-10.0
For the molecule B3, the binding result in assay [3] was “binds”.
